# Assay results reported in US8674063 (CENTRO DE INGENIERIA GENETICA Y BIOTECNOLOGIA, dated 2014).
# Molecular target: NS3pro protease of dengue virus 2 (strain S16803) (dengue virus 2 (strain S16803))
# Assay: cell-based or functional assay
binder,measurement,value
YGRKKRRQRRRPPQGGGSSPILSITISEDG [peptide NS2Bden2+TAT (peptide 1 of table 1)],"IC50 of inhibition of DV2 infection, plaque reduction neutralization assay in Vero cells",50 to 60 µM
